B1: DDB2 (human wild-type DDB2) (natural protein)
chain: MAPKKRPETQKTSEIVLRPRNKRSRSPLELEPEAKKLCAKGSGPSRRCDSDCLWVGLAGPQILPPCRSIVRTLHQHKLGRASWPSVQQGLQQSFLHTLDSYRILQKAAPFDRRATSLAWHPTHPSTVAVGSKGGDIMLWNFGIKDKPTFIKGIGAGGSITGLKFNPLNTNQFYASSMEGTTRLQDFKGNILRVFASSDTINIWFCSLDVSASSRMVVTGDNVGNVILLNMDGKELWNLRMHKKKVTHVALNPCCDWFLATASVDQTVKIWDLRQVRGKASFLYSLPHRHPVNAACFSPDGARLLTTDQKSEIRVYSASQWDCPLGLIPHPHRHFQHLTPIKAAWHPRYNLIVVGRYPDPNFKSCTPYELRTIDVFDGNSGKMMCQLYDPESSGISSLNEFNPMGDTLASAMGYHILIWSQEEARTRK

Key:
[1] = biological target: DDB1 (UV-DDB subunit);DDB2 (UV-DDB subunit) (human;human) (UniProt Q16531+Q92466); test: fluorescence polarisation; conditions: N at position 8 = THF abasic site
Chain of DDB1 (UV-DDB subunit);DDB2 (UV-DDB subunit) (human;human) (Q16531 whole entry, chain 1 of 2, one chain of several): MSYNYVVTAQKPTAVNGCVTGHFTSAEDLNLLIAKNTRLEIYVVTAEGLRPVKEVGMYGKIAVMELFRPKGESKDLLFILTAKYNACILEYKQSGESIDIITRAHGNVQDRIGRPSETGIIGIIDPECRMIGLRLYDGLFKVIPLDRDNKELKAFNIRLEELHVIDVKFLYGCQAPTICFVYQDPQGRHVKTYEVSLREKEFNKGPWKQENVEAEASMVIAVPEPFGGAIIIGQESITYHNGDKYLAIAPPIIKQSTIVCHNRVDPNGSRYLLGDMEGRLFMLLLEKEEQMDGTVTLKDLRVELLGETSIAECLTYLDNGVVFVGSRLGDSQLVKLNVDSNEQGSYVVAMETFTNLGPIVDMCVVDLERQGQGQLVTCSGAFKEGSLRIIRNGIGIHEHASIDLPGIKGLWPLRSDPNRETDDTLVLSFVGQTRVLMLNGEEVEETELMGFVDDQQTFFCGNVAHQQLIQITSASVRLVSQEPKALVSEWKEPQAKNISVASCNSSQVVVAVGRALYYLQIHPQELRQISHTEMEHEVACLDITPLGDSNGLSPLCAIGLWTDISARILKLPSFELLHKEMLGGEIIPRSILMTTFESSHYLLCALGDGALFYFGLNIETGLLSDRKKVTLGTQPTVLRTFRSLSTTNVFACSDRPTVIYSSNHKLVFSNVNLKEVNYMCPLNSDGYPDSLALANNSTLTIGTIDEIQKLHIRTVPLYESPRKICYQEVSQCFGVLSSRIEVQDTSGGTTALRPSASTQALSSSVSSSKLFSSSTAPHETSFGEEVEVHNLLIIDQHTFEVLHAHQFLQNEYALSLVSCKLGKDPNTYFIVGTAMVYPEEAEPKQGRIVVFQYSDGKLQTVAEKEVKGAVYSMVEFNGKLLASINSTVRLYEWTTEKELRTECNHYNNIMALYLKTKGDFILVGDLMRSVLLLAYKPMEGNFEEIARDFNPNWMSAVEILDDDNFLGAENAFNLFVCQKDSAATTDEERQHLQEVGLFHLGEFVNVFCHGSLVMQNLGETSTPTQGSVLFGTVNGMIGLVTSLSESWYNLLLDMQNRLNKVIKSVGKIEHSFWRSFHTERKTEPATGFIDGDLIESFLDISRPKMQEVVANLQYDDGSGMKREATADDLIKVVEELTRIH

[2] = biological target: DDB1 (human wild-type DDB1) (human, UniProt Q16531 1-1140); test: cryo-EM structure
Chain of DDB1 (human wild-type DDB1) (Q16531 whole entry): as the sequence (Q16531 whole entry, chain 1 of 2, one chain of several) above

Molecule	Kd [1]	binding result [2]
AATGAATNAAGCAGG / CCTGCTTTATTCATT [Cy5-15-bp-DNA-THF]	150 pM	–
B1	–	binds

Reference: publication PMC6611726 (Nature, 2019)
